From PMC3020915
Where “and” joins values, the source holds several entries; their conditions need not be identical. Identical values can stand only once. Values belong to the binder of their own block, whether it stands above or below them.

Target: GST-Rif Q75L (UniProt Q9HBH0)
Test: pull-down

fold increase of band intensity over the GST control: 6 fold and 9.2 fold
B1: MBP-NtΔBD (mDia2 91-528) (domain or fragment)
chain: NNPKALPESEVLKLFEKMMEDMNLNEDKKAPLREKDFGIKKEMVMQYINTASKTGSLRSSRQISPQEFLHELKMGYTDERLFTYLESLRVSLTSHPVSWVQSFGHEGLGLLLDILEKLINGQIQEKVVKKTQHKVIQCLRALMNTQYGLERIMSDKRSLSLLAKAMDPRQPAMMADVVKLLSAVCIVGEESILEEVLEALTSAGEERKIDRFFSIVEGLRHNSVNLQVACMQLINALVTSPDDLDFRLHLRNEFMRCGLKEILPNLKGIKNDGLDIQLKVFDEHKEEDLSEFFHRLEDIRAELDEASDVYSMLWDTVKETRAEGHFLSILQHLLLIRNDRFIREQYFKLIDECVSQIVLHRDGTDPDFTYRKRLDLDLSQFVDVCIDQAKLDEWEEKASEHCKKFEKECTDHQETQAQLQKREAKINELQAELQAFKS

fold increase of band intensity over the GST control: 2.4 fold and 3.8 fold
B2: MBP-Nt (mDia2 N-terminus, 1-528) (domain or fragment)
chain: MERHRARALGRDSKSSRRKGLQSAPPAGPYEPGEKRPKLHLNIRTLTDDMLDKFASIRIPGSKKERPPLPHLKTVSGISDSSSLSSETMENNPKALPESEVLKLFEKMMEDMNLNEDKKAPLREKDFGIKKEMVMQYINTASKTGSLRSSRQISPQEFLHELKMGYTDERLFTYLESLRVSLTSHPVSWVQSFGHEGLGLLLDILEKLINGQIQEKVVKKTQHKVIQCLRALMNTQYGLERIMSDKRSLSLLAKAMDPRQPAMMADVVKLLSAVCIVGEESILEEVLEALTSAGEERKIDRFFSIVEGLRHNSVNLQVACMQLINALVTSPDDLDFRLHLRNEFMRCGLKEILPNLKGIKNDGLDIQLKVFDEHKEEDLSEFFHRLEDIRAELDEASDVYSMLWDTVKETRAEGHFLSILQHLLLIRNDRFIREQYFKLIDECVSQIVLHRDGTDPDFTYRKRLDLDLSQFVDVCIDQAKLDEWEEKASEHCKKFEKECTDHQETQAQLQKREAKINELQAELQAFKS
